Experimental data reported in patent US20250043017A1 (Regeneron, published 2025).

Assays:
human 4-1BB on cells [1] = target: T1, human 4-1BB on cells (human, UniProt Q07011 24-255); experiment: cell-based or functional assay
human 4-1BB on cells [2] = target: T1, human 4-1BB on cells; experiment: cell-based or functional assay; remark: listed apart in the source
[3] = target: T2, human 4-1BB expressed with a C-terminal myc-myc-hexahistidine tag (h4-1BB.mmH) (human); experiment: SPR Biacore, 25 C, antibody captured via anti-hFc, h4-1BB.mmH as analyte
T2 construct: also called hCD137 (4-1BB) mmH
Protocol: The CM5 Biacore sensor surface was derivatized by amine coupling with a monoclonal mouse anti-human Fc antibody. All Biacore binding studies were performed in a buffer composed of 0.01M HEPES pH 7.4, 0.15M NaCl, 3 mM EDTA, 0.05% v/v Surfactant P20 (HBS-EP running buffer). […] Antibody-reagent association was monitored for 5 minutes while dissociation in HBS-EP running buffer was monitored for 10 minutes. At the end of each cycle, the antibody capture surface was regenerated using a 10 sec injection of 20 mM phosphoric acid. All binding kinetics experiments were performed at 25° C.
Data analysis: The specific SPR-Biacore sensorgrams were obtained by a double referencing procedure. The double referencing was performed by first subtracting the signal of each injection over a reference surface (anti-hFc or anti-mFc) from the signal over the experimental surface (anti-hFc-captured anti-PD-L1×4-1BB antibodies) thereby removing contributions from refractive index changes. In addition, running buffer injections were performed to allow subtraction of the signal changes resulting from the dissociation of captured antibodies or antigens from the coupled anti-hFc or anti-mFc surface. Kinetic association (kₐ) and dissociation (kd) rate constants were determined by fitting the real-time sensorgrams to a 1:1 binding model using Scrubber v2.0c curve fitting software. Binding dissociation equilibrium constants (KD) and dissociative half-lives (t½) were calculated from the kinetic rate constants as: […]

[4] = target: T2, human 4-1BB expressed with a C-terminal …; experiment: blocking ELISA, 0.25 nM h4-1BB-mmh binding to coated 6His-Flag-h4-1BBL
Protocol: The 4-1BB blocking assay was performed similarly to the PD-L1 blocking assay. 6His-Flag-h4-1BBL protein ([…] in PBS) was coated onto a 96-well microtiter plate overnight at 4 °C. […] The plates were developed using TMB substrate solution (BD Biosciences) and the absorbance at 450 nm was measured on a SpectraMax I3x plate reader.
Binding data were analyzed using a sigmoidal (four-parameter logistic) dose-response model with GraphPad Prism™ software. […] The percent blocking of tested antibodies at the highest tested concentration of 100 nM was calculated based on the formula shown below: […]

human 4-1BB on cells [5] = target: T1, human 4-1BB on cells; experiment: flow cytometry, Jurkat/NFkB-Luc/h41BB cells
Protocol: Binding was detected by using a labeled secondary antibody and measuring fluorescence on a flow cytometer.
Assay set up: OVCAR-3+/−PD-L1 cells were lifted with trypsin, washed and resuspended in stain buffer (2% FBS in PBS). OVCAR-3 and Jurkat/NFkB-Luc/h41BB cells were counted and added to wells at 200,000 cells/well. Cells, in wells of 96-well round bottom plates, were pelleted by centrifugation and resuspended in 150 ul stain buffer (PBS containing 2% FBS). Plates were once again centrifuged and subsequently 100 ul of stain buffer alone or stain buffer containing antibody, titrated from 200 nM to 12 pM in a 9-point 1:4 dose titration were added to cells. Cells and antibodies were incubated for 30 min on ice and then washed in stain buffer. Cells were resuspended in 2 μg/ml allophycocyanin (APC) conjugated goat-anti human secondary antibody. A secondary antibody alone control was included. Cells and secondary were incubated for 30 min on ice and then washed in stain buffer. After a subsequent wash with PBS (containing no FBS), cells were resuspended in viability dye (reconstituted in DMSO according to the manufacturer's protocol and diluted 1:1000 in PBS) and incubated for 20 min on ice. They were then washed with stain buffer and resuspended in 2% PFA for 30 min at 4 C. After washing they were filtered and analyzed by flow cytometry. EC₅₀ values of the antibodies were determined from a 4 parameter logistic equation over a 9-point dose response curve (including secondary only control) using GraphPad Prism software.

T2 sequence (chain, as listed by the source limits assumed): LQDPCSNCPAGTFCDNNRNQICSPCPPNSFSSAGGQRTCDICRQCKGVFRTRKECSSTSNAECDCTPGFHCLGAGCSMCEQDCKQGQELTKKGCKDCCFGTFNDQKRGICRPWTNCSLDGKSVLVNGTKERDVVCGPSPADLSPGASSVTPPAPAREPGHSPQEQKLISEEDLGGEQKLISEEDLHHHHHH
T1 sequence (Q07011 24-255): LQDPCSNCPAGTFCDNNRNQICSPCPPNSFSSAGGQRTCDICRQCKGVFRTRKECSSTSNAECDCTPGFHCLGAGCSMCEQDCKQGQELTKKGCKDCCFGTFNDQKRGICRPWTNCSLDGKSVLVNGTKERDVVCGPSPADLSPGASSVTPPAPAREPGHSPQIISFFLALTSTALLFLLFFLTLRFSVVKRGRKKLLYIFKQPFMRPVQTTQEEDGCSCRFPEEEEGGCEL

IL2 release MAX, human CD3+ T cells + HEK293/hCD20/hPSMA + CD20xCD3 (human 4-1BB on cells [1]) [pg/mL] | IL2 release MAX, human CD3+ T cells + HEK293/hCD20/hPSMA, no CD20xCD3 (human 4-1BB on cells [1]) [pg/mL] | IL2 release MAX, human CD3+ T cells + HEK293/hCD20/hPSMA/hPD-L1 + CD20xCD3 (human 4-1BB on cells [1]) [pg/mL] | IL2 release MAX, human CD3+ T cells + HEK293/hCD20/hPSMA/hPD-L1, no CD20xCD3 (human 4-1BB on cells [1]) [pg/mL] | NFkB-luciferase MAX (RLU), Jurkat/NFkB-Luc/h41BB + HEK293/hCD20/hPSMA (human 4-1BB on cells [2]) [RLU] | NFkB-luciferase MAX (RLU), Jurkat/NFkB-Luc/h41BB + HEK293/hCD20/hPSMA/hPD-L1 (human 4-1BB on cells [2]) [RLU] | 270 nM h4-1BB-mmH Bind (RU) [3] [RU] | Kd [3] [nM] | koff [3] [s⁻¹] | kon [3] [M⁻¹ s⁻¹] | t½ [3] [s] | % Blocking at 100 nM mAb [4] [%] | EC50 (human 4-1BB on cells [5]) [nM] | Fold change (max MFI over secondary antibody alone) (human 4-1BB on cells [5]) [fold] | Max [gMFI] (human 4-1BB on cells [5]) | NFkB-luciferase EC50, Jurkat/NFkB-Luc/h41BB + HEK293/hCD20/hPSMA (human 4-1BB on cells [2]) [nM] | IC50 [4] [nM] | IL2 release EC50, human CD3+ T cells + HEK293/hCD20/hPSMA/hPD-L1 + CD20xCD3 (human 4-1BB on cells [1]) [nM] | NFkB-luciferase EC50, Jurkat/NFkB-Luc/h41BB + HEK293/hCD20/hPSMA/hPD-L1 (human 4-1BB on cells [2]) [nM] | Binder
11.3 | 2.5 | 10.3 | 2.5 | 18500 | 18500 | – | – | – | – | – | – | – | – | – | – | – | – | – | mAb9373 (antibody, V domains shown) VH: QVQLVQSGTEVKKPGASVKVSCKASGYTFTAYYMHWVRQAPGQGLDWMGWISPNSGFTNYAQKFQGRVTMTRDTSINTFYMELSGLRSDDTAVYYCAREGSTHHNSFDPWGQGTLVTVSS VL: not shown
9.3 | 1.6 | 4.6 | 1.6 | 18500 | 18100 | 67.5 | 34.2 | 0.0196 | 572000 | 36 | 87 | 0.00508 | 60.5 | 140000 | – | – | – | – | mAb25907 (antibody, V domains shown, bivalent parental anti-4-1BB antibody of REGN6190; also called 25907P2) VH: EVQLVESGGGLVQPGGSLRLSCEASGFTFSSYEMNWVRQAPGKGLEWISHISSSGSSIYYADSVQGRFTISRDKAKNSLYLQMNSLRAEDTAVYYCTREGFEYGSSSGLKYYYYGLDVWGQGTTVTVSS VL: not shown
8.4 | 3.3 | 5.1 | 3.3 | 19000 | 19000 | 63.8 | 94.5 | 0.0282 | 298000 | 24 | 70 | 0.0406 | 53.8 | 120000 | – | – | – | – | mAb25898 (antibody, V domains shown, bivalent parental anti-4-1BB antibody of REGN6189; also called 25898P2; parental bivalent 4-1BB antibody) VH: QVQLVESGGDVVQPGRSLRLSCTASGFTFSSFGMHWVRQAPGKGLEWVTFLSYDGSYKYYADSVKGRFTISRDNSKNTLYLQMNSLRAEDTAIFYCARDWLDYWGQGTLVTVSS VL: not shown
9.6 | 1 | 7.8 | 1 | 34300 | 29800 | 35.1 | 170 | 0.0902 | 530000 | 6 | 61 | – | 44.7 | 100000 | 14.8 | – | – | – | mAb25894 (antibody, V domains shown, bivalent parental anti-4-1BB antibody of REGN6188; also called 25894P2; parental bivalent 4-1BB antibody) VH: EVQLVESGGGLVQPGGSLRLSCVASGFTFSSYEMNWVRQAPGKGLEWVSYISNSGTTIYYAGSVKGRFTISRDNAKKSLYLHMNSLRAEDTAVYYCAREGTIFGTVHYYFALDVWGQGTTVTVSS VL: not shown
10 | 1 | 5.8 | 1 | 18000 | 18000 | – | – | – | – | – | 94 | 0.287 | 76.9 | 170000 | – | 0.75 | – | – | mAb25921 (antibody, V domains shown, bivalent parental anti-4-1BB antibody of REGN6191; also called 25921P2; a-4-1BB) VH: QVQLVQSGAEVKKPGASVKVSCKASAYTFTSYGFSWVRQAPGQGLEWMGWISTSNGYTNYAQKIQDRVTMTTDTSTSTAYMELRSLRSDDTAVYYCASLSNWVSFFDYWGQGTLVTVSS VL: not shown
7.2 | 5.1 | 45.8 | 5.1 | 35900 | 562000 | 25.4 | 128 | 0.0948 | 742000 | 6 | 33 | – | 22.9 | 52000 | – | – | 0.926 | 0.558 | REGN6188 (bispecific antibody, human IgG4 S228P, kappa, common light chain 1-39; also called R6188; PD-L1x4-1BB REGN6188) heavy 1: EVQLVESGGGLVQPGRSLRLSCAASGFTFDDYALHWVRQAPGKGLEWVSGISWTGGTIDYADSVKGRFTISRDNAKNSLYLQMSSLRTEDTAIYYCTRDIRGNWKYGGWFDPWGQGTLVTVSSASTKGPSVFPLAPCSRSTSESTAALGCLVKDYFPEPVTVSWNSGALTSGVHTFPAVLQSSGLYSLSSVVTVPSSSLGTKTYTCNVDHKPSNTKVDKRVESKYGPPCPPCPAPPVAGPSVFLFPPKPKDTLMISRTPEVTCVVVDVSQEDPEVQFNWYVDGVEVHNAKTKPREEQFNSTYRVVSVLTVLHQDWLNGKEYKCKVSNKGLPSSIEKTISKAKGQPREPQVYTLPPSQEEMTKNQVSLTCLVKGFYPSDIAVEWESNGQPENNYKTTPPVLDSDGSFFLYSRLTVDKSRWQEGNVFSCSVMHEALHNHYTQKSLSLSLGK heavy 2: EVQLVESGGGLVQPGGSLRLSCVASGFTFSSYEMNWVRQAPGKGLEWVSYISNSGTTIYYAGSVKGRFTISRDNAKKSLYLHMNSLRAEDTAVYYCAREGTIFGTVHYYFALDVWGQGTTVTVSSASTKGPSVFPLAPCSRSTSESTAALGCLVKDYFPEPVTVSWNSGALTSGVHTFPAVLQSSGLYSLSSVVTVPSSSLGTKTYTCNVDHKPSNTKVDKRVESKYGPPCPPCPAPPVAGPSVFLFPPKPKDTLMISRTPEVTCVVVDVSQEDPEVQFNWYVDGVEVHNAKTKPREEQFNSTYRVVSVLTVLHQDWLNGKEYKCKVSNKGLPSSIEKTISKAKGQPREPQVYTLPPSQEEMTKNQVSLTCLVKGFYPSDIAVEWESNGQPENNYKTTPPVLDSDGSFFLYSRLTVDKSRWQEGNVFSCSVMHEALHNRFTQKSLSLSPGK light: not shown
